Source: PMC9064305

target: Human fibrillin-2 recombinant C-terminal half (rFBN2-C) (human) (UniProt P35556); assay: SPR; FBN2-Ct amine-coupled to a CM5 chip (1700 RU), ADAMTS6 constructs as analytes; Biacore 3000, 25 °C, 10 mM Hepes pH 7.4, 0.15 M NaCl, 2 mM CaCl2, 0.005% or 0.05% P20, 30 μl/min; steady state affinity method

Sequence of Recombinant human ADAMTS6-Ct (residues 558-1117) (Q9UKP5 558-1117): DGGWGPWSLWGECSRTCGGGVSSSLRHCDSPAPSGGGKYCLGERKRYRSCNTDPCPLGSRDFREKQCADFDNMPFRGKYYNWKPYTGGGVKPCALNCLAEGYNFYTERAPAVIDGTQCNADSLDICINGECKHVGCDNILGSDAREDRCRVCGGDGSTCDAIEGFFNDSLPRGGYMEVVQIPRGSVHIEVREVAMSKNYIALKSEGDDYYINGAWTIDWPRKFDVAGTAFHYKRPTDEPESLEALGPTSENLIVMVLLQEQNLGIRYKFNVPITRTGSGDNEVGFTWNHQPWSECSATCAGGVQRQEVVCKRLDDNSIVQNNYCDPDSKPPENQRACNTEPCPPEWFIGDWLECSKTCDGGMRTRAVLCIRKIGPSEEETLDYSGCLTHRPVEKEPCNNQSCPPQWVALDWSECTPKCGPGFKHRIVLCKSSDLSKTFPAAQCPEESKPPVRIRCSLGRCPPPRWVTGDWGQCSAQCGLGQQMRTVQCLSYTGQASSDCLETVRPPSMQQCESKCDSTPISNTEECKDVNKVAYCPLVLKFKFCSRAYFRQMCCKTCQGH
Sequence of Recombinant human ADAMTS6-4TSR (residues 840-1117) (Q9UKP5 840-1117): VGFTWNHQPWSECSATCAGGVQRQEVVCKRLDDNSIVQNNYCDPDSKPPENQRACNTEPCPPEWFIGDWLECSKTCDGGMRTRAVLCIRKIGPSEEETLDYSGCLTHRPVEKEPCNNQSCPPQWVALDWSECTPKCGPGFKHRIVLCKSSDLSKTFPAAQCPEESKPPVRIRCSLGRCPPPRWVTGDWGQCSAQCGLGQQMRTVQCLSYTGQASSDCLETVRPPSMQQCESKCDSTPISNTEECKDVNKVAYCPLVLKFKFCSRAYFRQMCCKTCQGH
Sequence of Recombinant human ADAMTS6-S4TSR (residues 717-1117) (Q9UKP5 717-1117): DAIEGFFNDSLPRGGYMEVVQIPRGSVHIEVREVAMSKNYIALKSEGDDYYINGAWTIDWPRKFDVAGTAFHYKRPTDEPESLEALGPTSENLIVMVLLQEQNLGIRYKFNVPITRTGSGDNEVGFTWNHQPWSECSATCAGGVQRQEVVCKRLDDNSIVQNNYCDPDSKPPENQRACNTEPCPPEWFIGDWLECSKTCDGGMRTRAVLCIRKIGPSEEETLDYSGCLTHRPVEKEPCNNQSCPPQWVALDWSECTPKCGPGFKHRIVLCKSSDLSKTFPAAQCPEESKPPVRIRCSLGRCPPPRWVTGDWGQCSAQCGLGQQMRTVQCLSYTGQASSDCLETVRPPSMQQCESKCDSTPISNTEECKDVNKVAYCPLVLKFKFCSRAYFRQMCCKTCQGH

Kd | Substance
114 nM | Recombinant human ADAMTS6-S4TSR (residues 717-1117) (from UniProt Q9UKP5 717-1117) (domain or fragment)
122 nM | Recombinant human ADAMTS6-4TSR (residues 840-1117) (from UniProt Q9UKP5 840-1117) (domain or fragment)
436 nM | Recombinant human ADAMTS6-Ct (residues 558-1117) (from UniProt Q9UKP5 558-1117) (domain or fragment)
